In PMC6550519, “Regulatory Mechanism of Nicotine Degradation in Pseudomonas putida” (mBio, 2019):

Columns and labels:
[1] = target: NicR2; assay: ITC, […] HSP titrated into […] purified free NicR2; supported by EMSA; assay type: binding, Pseudomonas putida
[2] = tested on: NicR2 (Pseudomonas putida S16); assay: ITC; conditions: EMSA: 10 mM Tris-HCl, 100 mM NaCl, 27 nM DNA, 180 nM NicR2, 30 min room temperature, 9% native PAGE; ITC: PBS, 64 uM NicR2 in cell, 100 uM DNA titrant …

Compound	Kd [1] [µM]	Kd [2] [µM]
O=C(O)CCC(=O)c1ccc(O)nc1 [HSP, 6-hydroxy-3-succinoyl-pyridine]	4.95 ± 0.48	–
CACTAATTATACCGTCGTACATAGAATAAA (double strand) [R-m3 30 bp]	–	1.8
CACTAATTATACCGTCGTACATATAATAAA (double strand) [wild type 30 bp (Pspm inverted repeat)]	–	0.18
CACTAATTATACCGTCGTACATATCCTAAA (double strand) [R-m12 30 bp]	–	0.14
CACTAATTATACCGTCGTACATCTAATAAA (double strand) [R-m4 30 bp]	–	0.57
